Test results reported in article PMC10531710, “Overexpression of the First Peanut-Susceptible Gene, AhS5H1 or AhS5H2, Enhanced Susceptibility to Pst DC3000 in Arabidopsis” (International Journal of Molecular Sciences, 2023).

Assays:
O=C(O)c1ccccc1O = tested on: T1, O=C(O)c1ccccc1O; assay: purified protein; assay type: biochemical, Arachis hypogaea; settings: 1 mM 2-oxoglutarate, 1 mM ascorbate, 0.4 mM FeSO4, 0.1 mg/mL catalase, 5 mM DTT, 50 mM phosphate pH 6.8, 40 °C, 30 min
T1 construct: full ORF 1014 bp, 338 residues as printed; modified pGEX (GST) vector with C-terminal 3xMyc; E. coli BL21(DE3); glutathione Sepharose purified; tag removal not mentioned

purified protein = substrate: O=C(O)c1ccccc1O; assay: purified protein; assay type: biochemical, Arachis hypogaea; settings: 1 mM 2-oxoglutarate, 1 mM ascorbate, 0.4 mM FeSO4, 0.1 mg/mL catalase, 5 mM DTT, 50 mM phosphate pH 6.8, 40 °C, 30 min

Molecule	Km (O=C(O)c1ccccc1O) [µM]	Km (purified protein) [µM]
AhS5H2 (Arachis hypogaea)	190.52 ± 26.33	–
AhS5H1 (Arachis hypogaea) (protein, full ORF 1059 bp, 353 residues as printed; modified pGEX (GST) vector with C-terminal 3xMyc; E. coli BL21(DE3); glutathione Sepharose purified; tag removal not mentioned) MANTKPLLLADQVTNMKHIPLNFIRPLNDRPNLQNLQSSNDNNESIPIIDLQGLDEDNDASNRSQIIHNIGQACQDYGFFQIVNHGVPEDVVGKMMKVGKAFFDLPESERMKNYSDDPSKTTRLSTSFNVKTEKVANWRDFLRLHCHPLEDYIQEWPTNPPSFREDVGEYSKHMRKLSLKLLEAISESLGLEKDYMEKALGKHGQHMAINYYPPCPEPDLTYGLPAHADPNAITILLQNHVPGLQVLKDGHWVTVKHVPNTFIVNIGDQIQVISNDKYKSVLHRALVNCEKERMSIPTFYCPSPEALVGPAPQLIDQHNDPPKYTNFTYAEYYHKFWNRGLSKETCVDLFKV	–	44.72 ± 6.95
